In publication PMC9464592 (Nature, 2022):

What was measured:
Assay in all cases: cryo-EM structure
tag-free WDR59 = molecular target: T1, tag-free WDR59 (human, UniProt Q6PJI9 1-974)
T1 sequence: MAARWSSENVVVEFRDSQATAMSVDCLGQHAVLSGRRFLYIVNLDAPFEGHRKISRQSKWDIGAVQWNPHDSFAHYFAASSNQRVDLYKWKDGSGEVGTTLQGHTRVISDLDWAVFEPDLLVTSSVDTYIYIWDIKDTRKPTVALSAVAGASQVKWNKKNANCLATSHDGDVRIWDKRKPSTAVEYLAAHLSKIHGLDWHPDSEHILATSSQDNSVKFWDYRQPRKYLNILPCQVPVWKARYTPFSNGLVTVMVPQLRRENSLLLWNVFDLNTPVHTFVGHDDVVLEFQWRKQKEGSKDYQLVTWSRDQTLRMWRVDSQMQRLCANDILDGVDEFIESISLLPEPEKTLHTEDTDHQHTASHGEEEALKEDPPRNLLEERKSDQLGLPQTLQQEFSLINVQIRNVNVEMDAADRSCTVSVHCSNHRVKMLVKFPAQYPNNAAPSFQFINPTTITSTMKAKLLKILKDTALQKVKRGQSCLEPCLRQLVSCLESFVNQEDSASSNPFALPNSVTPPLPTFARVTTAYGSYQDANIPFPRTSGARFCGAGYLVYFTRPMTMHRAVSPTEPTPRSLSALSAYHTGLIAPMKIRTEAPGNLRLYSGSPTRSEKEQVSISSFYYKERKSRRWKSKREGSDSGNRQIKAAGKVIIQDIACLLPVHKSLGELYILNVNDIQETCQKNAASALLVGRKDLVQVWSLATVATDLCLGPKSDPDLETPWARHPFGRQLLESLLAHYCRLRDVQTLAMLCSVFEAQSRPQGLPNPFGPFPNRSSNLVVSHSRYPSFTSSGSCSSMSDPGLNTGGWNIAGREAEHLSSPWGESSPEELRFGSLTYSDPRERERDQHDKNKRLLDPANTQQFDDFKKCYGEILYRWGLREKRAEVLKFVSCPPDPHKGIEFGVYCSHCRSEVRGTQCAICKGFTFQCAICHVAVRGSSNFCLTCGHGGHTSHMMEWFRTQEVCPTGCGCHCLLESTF

[1] = molecular target: T2, N-terminally Flag-tagged MIOS (human, UniProt Q9NXC5 1-875)
T2 sequence: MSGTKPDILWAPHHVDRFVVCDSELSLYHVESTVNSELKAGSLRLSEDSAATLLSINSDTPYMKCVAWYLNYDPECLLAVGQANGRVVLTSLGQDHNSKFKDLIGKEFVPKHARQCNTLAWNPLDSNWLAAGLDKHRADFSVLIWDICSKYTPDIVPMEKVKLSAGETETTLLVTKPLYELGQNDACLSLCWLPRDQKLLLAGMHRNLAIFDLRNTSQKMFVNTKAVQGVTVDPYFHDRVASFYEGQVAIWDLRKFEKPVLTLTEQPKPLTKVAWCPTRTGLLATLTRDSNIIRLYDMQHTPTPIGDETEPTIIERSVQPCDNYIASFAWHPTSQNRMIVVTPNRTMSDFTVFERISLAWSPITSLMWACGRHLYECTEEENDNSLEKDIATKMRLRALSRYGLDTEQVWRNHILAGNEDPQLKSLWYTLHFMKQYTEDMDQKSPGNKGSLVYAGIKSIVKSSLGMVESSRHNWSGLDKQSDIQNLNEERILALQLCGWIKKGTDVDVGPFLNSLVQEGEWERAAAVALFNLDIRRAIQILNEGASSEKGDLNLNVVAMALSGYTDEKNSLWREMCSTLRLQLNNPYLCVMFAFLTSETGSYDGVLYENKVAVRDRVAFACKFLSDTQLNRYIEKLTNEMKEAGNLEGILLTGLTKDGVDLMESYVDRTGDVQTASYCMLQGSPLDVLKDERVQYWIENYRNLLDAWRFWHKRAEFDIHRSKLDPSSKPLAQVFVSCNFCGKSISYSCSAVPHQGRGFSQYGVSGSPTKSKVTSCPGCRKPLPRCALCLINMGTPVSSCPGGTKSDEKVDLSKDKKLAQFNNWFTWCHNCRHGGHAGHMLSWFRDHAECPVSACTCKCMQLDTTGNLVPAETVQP

tag-free WDR24 = molecular target: T3, tag-free WDR24 (human, UniProt Q96S15 1-790)
T3 sequence: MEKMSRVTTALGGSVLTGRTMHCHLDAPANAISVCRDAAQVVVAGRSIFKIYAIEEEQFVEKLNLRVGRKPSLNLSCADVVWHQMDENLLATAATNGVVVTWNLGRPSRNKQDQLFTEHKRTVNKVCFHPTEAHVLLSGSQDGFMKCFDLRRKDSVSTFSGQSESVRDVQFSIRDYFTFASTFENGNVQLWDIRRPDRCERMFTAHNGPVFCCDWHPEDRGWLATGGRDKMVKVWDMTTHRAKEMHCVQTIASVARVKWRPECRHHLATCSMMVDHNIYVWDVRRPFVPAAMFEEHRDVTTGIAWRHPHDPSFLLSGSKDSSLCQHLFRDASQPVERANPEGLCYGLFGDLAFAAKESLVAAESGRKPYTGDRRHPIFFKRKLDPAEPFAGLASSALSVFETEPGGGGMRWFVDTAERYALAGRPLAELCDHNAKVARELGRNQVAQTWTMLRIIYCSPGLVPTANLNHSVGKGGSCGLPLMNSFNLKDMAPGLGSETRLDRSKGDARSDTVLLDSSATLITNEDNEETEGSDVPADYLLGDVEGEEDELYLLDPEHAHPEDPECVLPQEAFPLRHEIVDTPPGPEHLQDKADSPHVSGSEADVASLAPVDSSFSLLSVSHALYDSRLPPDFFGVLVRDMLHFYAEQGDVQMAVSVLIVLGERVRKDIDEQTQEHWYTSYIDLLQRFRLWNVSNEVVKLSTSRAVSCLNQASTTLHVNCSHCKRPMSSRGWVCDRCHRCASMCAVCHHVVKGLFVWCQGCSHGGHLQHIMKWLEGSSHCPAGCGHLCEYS

- binding result (tag-free WDR59): binds
- binding result [1]: binds
- binding result (tag-free WDR24): binds
B1: tag-free SEC13 (natural protein, human)
chain: MVSVINTVDTSHEDMIHDAQMDYYGTRLATCSSDRSVKIFDVRNGGQILIADLRGHEGPVWQVAWAHPMYGNILASCSYDRKVIIWREENGTWEKSHEHAGHDSSVNSVCWAPHDYGLILACGSSDGAISLLTYTGEGQWEVKKINNAHTIGCNAVSWAPAVVPGSLIDHPSGQKPNYIKRFASGGCDNLIKLWKEEEDGQWKEEQKLEAHSDWVRDVAWAPSIGLPTSTIASCSQDGRVFIWTCDDASSNTWSPKLLHKFNDVVWHVSWSITANILAVSGGDNKVTLWKESVDGQWVCISDVNKGQGSVSASVTEGQQNEQ
